Measured values reported in patent publication US20100272706A1, “ANTIVIRALS” (priority 2007, published 2010).

Tested on: vaccinia virus mature virions (EGFP-MV)
Type: cell-based

B1: dominant negative dynamin (K44A) (protein, UniProt Q05193 1-864, looked up, variant K44A)
Dynamin-1: MGNRGMEDLIPLVNRLQDAFSAIGQNADLDLPQIAVVGGQSAGASSVLENFVGRDFLPRGSGIVTRRPLVLQLVNATTEYAEFLHCKGKKFTDFEEVRLEIEAETDRVTGTNKGISPVPINLRVYSPHVLNLTLVDLPGMTKVPVGDQPPDIEFQIRDMLMQFVTKENCLILAVSPANSDLANSDALKVAKEVDPQGQRTIGVITKLDLMDEGTDARDVLENKLLPLRRGYIGVVNRSQKDIDGKKDITAALAAERKFFLSHPSYRHLADRMGTPYLQKVLNQQLTNHIRDTLPGLRNKLQSQLLSIEKEVEEYKNFRPDDPARKTKALLQMVQQFAVDFEKRIEGSGDQIDTYELSGGARINRIFHERFPFELVKMEFDEKELRREISYAIKNIHGIRTGLFTPDMAFETIVKKQVKKIREPCLKCVDMVISELISTVRQCTKKLQQYPRLREEMERIVTTHIREREGRTKEQVMLLIDIELAYMNTNHEDFIGFANAQQRSNQMNKKKTSGNQDEILVIRKGWLTINNIGIMKGGSKEYWFVLTAENLSWYKDDEEKEKKYMLSVDNLKLRDVEKGFMSSKHIFALFNTEQRNVYKDYRQLELACETQEEVDSWKASFLRAGVYPERVGDKEKASETEENGSDSFMHSMDPQLERQVETIRNLVDSYMAIVNKTVRDLMPKTIMHLMINNTKEFIFSELLANLYSCGDQNTLMEESAEQAQRRDEMLRMYHALKEALSIIGDINTTTVSTPMPPPVDDSWLQVQSVPAGRRSPTSSPTPQRRAPAVPPARPGSRGPAPGPPPAGSALGGAPPVPSRPGASPDPFGPPPQVPSRPNRAPPGVPSRSGQASPSRPESPRPPFDL
effect of expressed construct on infection: no impact

B2: AID (protein, UniProt Q9GZX7 1-198, looked up)
Single-stranded DNA cytosine …: MDSLLMNRRKFLYQFKNVRWAKGRRETYLCYVVKRRDSATSFSLDFGYLRNKNGCHVELLFLRYISDWDLDPGRCYRVTWFTSWSPCYDCARHVADFLRGNPNLSLRIFTARLYFCEDRKAEPEGLRRLHRAGVQIAIMTFKDYFYCWNTFVENHERTFKAWEGLHENSVRLSRQLRRILLPLYEVDDLRDAFRTLGL
inhibition of infection by expression of construct: 80%
